B1: F1*; the commonest letter at each place (parent)
chain: GAGACCGCAACTGAAAAGTTGTTATCACTTGTCGTAAGACACTTTGGATGGGTTGAAGTTCTGCACGTAGAAGCAAAAGGC

Variants of: B1
Assay: fraction ligated after 30 min (ligated reads / total reads); higher = more ligase activity
Settings: with F1*sub RNA substrate (template-directed ligation), 42 °C
Procedure, shortened: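 Templates from an oligo pool were PCR-amplified, transcribed with T7 and gel-purified to give the ribozyme variants. Ligated and unligated products were separated on gel, reverse transcribed using barcoded primers, and read on a MiSeq. A quality filter of ≥20 was applied to core bases. Fraction ligated was taken as ligated reads as a share of all reads per variant.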

Variant | fraction ligated
GAGACCGCAACTGAAAAGTTGTTATCACTTGTCCTAAGACACTTTGGATGGGTTGGAGTTCTGCACGTAGAAGCAAAAGGC | 0.794
GAGACCGCAACTGAAAAGTTGTTATCACTAATCGTAAGACACTTTGGATGGGTTGAAGTTCTGCACGTAGAAGCAAAAGGC | 0.842
GAGACCGCAACTGAAAAGTTGTTATCACTTGTCGTAACACACTTGGGATGGGTTGAAGTTCTGCACGTAGAAGCAAAAGGC | 0.0325
GAGACCGCAACTGAAAAGTTGTTATCACTTGTCGTTAGTCACTTTGGATGGGTTGAAGTTCTGCACGTAGAAGCAAAAGGC | 0.836
GAGACCGCAACTGAAAAGTTGTTATCAGTTGTCGTAAGAGACTTTGGATGGGTTGAAGTTCTGCACGTAGAAGCAAAAGGC | 0.812
GAGACCGCAACTGAAAAGTTGTTATCACTTGTCGTATGACACTTTGGAAGGGTTGAAGTTCTGCACGTAGAAGCAAAAGGC | 0.802
GAGACCGCAACTGAAAAGTTGTTATCACTTGTCGTAACACACTTTGGATGGGTTGCAGTTCTGCACGTAGAAGCAAAAGGC | 0.209
GAGACCGCAACTGAAAAGTTGTTATCAGTTGTCGAAAGACACTTTGGATGGGTTGAAGTTCTGCACGTAGAAGCAAAAGGC | 0.814
GAGACCGCAACTGAAAAGTTGTTATACCTTGTCGTAAGACACTTTGGATGGGTTGAAGTTCTGCACGTAGAAGCAAAAGGC | 0.842
GAGACCGCAACTGAAAAGTTGTTTTCACTTGTCGTAAGACACTTTGGATCGGTTGAAGTTCTGCACGTAGAAGCAAAAGGC | 0.295
GAGACCGCAACTGAAAAGTTGTTTTCACTTGTCGTAAGACACTTTGGATTGGTTGAAGTTCTGCACGTAGAAGCAAAAGGC | 0.535
GAGACCGCAACTGAAAAGTTGTTATCACTTCTCGTGAGACACTTTGGATGGGTTGAAGTTCTGCACGTAGAAGCAAAAGGC | 0.682
GAGACCGCAACTGAAAAGTTGTTTTCACTTGTCGTAAGACACTTTGGATGGGTTGATGTTCTGCACGTAGAAGCAAAAGGC | 0.503
GAGACCGCAACTGAAAAGTTGTTATCACTTGTCGTCAGACACTTTGCATGGGTTGAAGTTCTGCACGTAGAAGCAAAAGGC | 0.224
GAGACCGCAACTGAAAAGTTGTTATCACTTGTCGTAAGACACTTTGCCTGGGTTGAAGTTCTGCACGTAGAAGCAAAAGGC | 0.168
GAGACCGCAACTGAAAAGTTGTTATCAATTTTCGTAAGACACTTTGGATGGGTTGAAGTTCTGCACGTAGAAGCAAAAGGC | 0.826
GAGACCGCAACTGAAAAGTTGTTATCAGTTGGCGTAAGACACTTTGGATGGGTTGAAGTTCTGCACGTAGAAGCAAAAGGC | 0.783

Variant | fraction ligated
GAGACCGCAACTGAAAAGTTGTTATCACTGGTCGTAAAACACTTTGGATGGGTTGAAGTTCTGCACGTAGAAGCAAAAGGC | 0.843
GAGACCGCAACTGAAAAGTTGTTACCACTTGTCGTAAGACACTTTGGATGGGTTGAGGTTCTGCACGTAGAAGCAAAAGGC | 0.711
GAGACCGCAACTGAAAAGTTGTTATCACTTCTCGTAAGACAGTTTGGATGGGTTGAAGTTCTGCACGTAGAAGCAAAAGGC | 0.79
GAGACCGCAACTGAAAAGTTGTTATCAGTTGTCGTAAGACACTTTAGATGGGTTGAAGTTCTGCACGTAGAAGCAAAAGGC | 0.811
GAGACCGCAACTGAAAAGTTGTTATCTCTTGTCTTAAGACACTTTGGATGGGTTGAAGTTCTGCACGTAGAAGCAAAAGGC | 0.771
GAGACCGCAACTGAAAAGTTGTTATCACTTGTCGTAAGGCACATTGGATGGGTTGAAGTTCTGCACGTAGAAGCAAAAGGC | 0.838
GAGACCGCAACTGAAAAGTTGTGATCACTTGTCGTAAGACACTCTGGATGGGTTGAAGTTCTGCACGTAGAAGCAAAAGGC | 0.802
GAGACCGCAACTGAAAAGTTGTTATCAATTGTCGTAAGTCACTTTGGATGGGTTGAAGTTCTGCACGTAGAAGCAAAAGGC | 0.794
GAGACCGCAACTGAAAAGTTGTTATCTCTCGTCGTAAGACACTTTGGATGGGTTGAAGTTCTGCACGTAGAAGCAAAAGGC | 0.804
GAGACCGCAACTGAAAAGTTGTTATCGCTTGTCGTAAGACACTTTGCATGGGTTGAAGTTCTGCACGTAGAAGCAAAAGGC | 0.583
GAGACCGCAACTGAAAAGTTGTAATCACTTGTCGTAAGACACTTTGGATGGGTTGATGTTCTGCACGTAGAAGCAAAAGGC | 0.813
GAGACCGCAACTGAAAAGTTGTTATGACTTGTCGTAAGACAATTTGGATGGGTTGAAGTTCTGCACGTAGAAGCAAAAGGC | 0.767
GAGACCGCAACTGAAAAGTTGTTATCACTTGTCGTAAGACAGTTTGGATGGGTTGTAGTTCTGCACGTAGAAGCAAAAGGC | 0.797
GAGACCGCAACTGAAAAGTTGTTATGACTTGTCGTAAGACACTTTGGCTGGGTTGAAGTTCTGCACGTAGAAGCAAAAGGC | 0.104
GAGACCGCAACTGAAAAGTTGTTATCACTTGTCGTAAGACCCTTTGAATGGGTTGAAGTTCTGCACGTAGAAGCAAAAGGC | 0.228
GAGACCGCAACTGAAAAGTTGTTATCATTTGTCGTAAGACACTTTGGCTGGGTTGAAGTTCTGCACGTAGAAGCAAAAGGC | 0.606
GAGACCGCAACTGAAAAGTTGTTATCACTTGTCGTAACCCACTTTGGATGGGTTGAAGTTCTGCACGTAGAAGCAAAAGGC | 0.752

From the supplement of paper PMC6755084
